The text below walks through data of article PMC5940772 (Nature Communications, 2018).

The series “crystal structure” concerns the molecule itself. The series can be described thus: crystal structure.
Series [1] has as its target His-tagged TRIM25-CC (coiled-coil domain of TRIM25, 189-379) (human, UniProt Q14258 189-379). The experiment in a line: BLI; […] (~12 ug/ml); […]; 25 °C; 50 mM HEPES pH 7.5, 150 mM NaCl, 1 mM DTT, 0.005% Tween-20; […]. The conditions noted are these: both partners purified. In general terms: Biolayer interferometry detects binding as a change in optical thickness at a sensor tip.

The series “SEC + SEC-MALS” deals with the molecule itself. The experiment in a line: SEC + SEC-MALS. A general note: SEC sorts molecules by how far they enter the pores of the column.

B1: TRIM25-CC (coiled-coil domain of TRIM25, 189-379), tag removed (domain or fragment)
chain: ASLSQASADLEATLRHKLTVMYSQINGASRALDDVRNRQQDVRMTANRKVEQLQQEYTEMKALLDASETTSTRKIKEEEKRVNSKFDTIYQILLKKKSEIQTLKEEIEQSLTKRDEFEFLEKASKLRGISTKPVYIPEVELNHKLIKGIHQSTIDLKNELKQCIGRLQEPTPSSGDPGEHDPASTHKSTRP
As to B1, the binding result in “crystal structure” was “binds”.

B2: NS1-ED (effector domain of NS1, 79-230) (domain or fragment)
chain: MTMASVPASRYLTDMTLEEMSRDWSMLIPKQKVAGPLCIRMDQAIMDKNIILKANFSVIFDRLETLILLRAFTEEGAIVGEISPLPSLPGHTAEDVKNAVGVLIGGLEWNDNTVRVSETLQRFAWRSSNENGRPPLTPKQKREMAGTIRSEV
On to B2, for which the affinity in series [1], expressed as Kd, was 16.1 µM.

B3: Human TRIM25 CC-PRYSPRY domain (residues 189-630) (domain or fragment)
chain: ASLSQASADLEATLRHKLTVMYSQINGASRALDDVRNRQQDVRMTANRKVEQLQQEYTEMKALLDASETTSTRKIKEEEKRVNSKFDTIYQILLKKKSEIQTLKEEIEQSLTKRDEFEFLEKASKLRGISTKPVYIPEVELNHKLIKGIHQSTIDLKNELKQCIGRLQEPTPSSGDPGEHDPASTHKSTRPVKKVSKEEKKSKKPPPVPALPSKLPTFGAPEQLVDLKQAGLEAAAKATSSHPNSTSLKAKVLETFLAKSRPELLEYYIKVILDYNTAHNKVALSECYTVASVAEMPQNYRPHPQRFTYCSQVLGLHCYKKGIHYWEVELQKNNFCGVGICYGSMNRQGPESRLGRNSASWCVEWFNTKISAWHNNVEKTLPSTKATRVGVLLNCDHGFVIFFAVADKVHLMYKFRVDFTEALYPAFWVFSAGATLSICSPK
notes: also called TRIM25 coiled-coil-PRY-SPRY
Turning to B3, the stoichiometry N (commonly the number of molecules, sites or subunits per partner or assembly) in the series “SEC + SEC-MALS” stood at 2.
